According to PMC6056499, “A systematic dissection of sequence elements determining β-Klotho and FGF interaction and signaling” (Scientific Reports, 2018):
Where a chain is given by its changes, count along the chain named. In names and notes the source's numbering stands.

T1: human β-Klotho extracellular domain (aa1–992) fused with a 6 × His tag at the C-terminus (human, UniProt Q86Z14 1-992, biotin (EZ-Link Sulfo-NHS-LC-Biotin) in the bio-layer interferometry)
T1 construct: signal peptide in the construct; human β-Klotho extracellular domain, aa1–992 of the full-length protein aa1-1044 (NM_175737); also called β-Klotho ECD 6 × His; soluble human β-Klotho; source: CHO-EBNA1, transiently transfected, conditioned medium; not shown: His6, C-terminal, kept
T1 sequence (looked up): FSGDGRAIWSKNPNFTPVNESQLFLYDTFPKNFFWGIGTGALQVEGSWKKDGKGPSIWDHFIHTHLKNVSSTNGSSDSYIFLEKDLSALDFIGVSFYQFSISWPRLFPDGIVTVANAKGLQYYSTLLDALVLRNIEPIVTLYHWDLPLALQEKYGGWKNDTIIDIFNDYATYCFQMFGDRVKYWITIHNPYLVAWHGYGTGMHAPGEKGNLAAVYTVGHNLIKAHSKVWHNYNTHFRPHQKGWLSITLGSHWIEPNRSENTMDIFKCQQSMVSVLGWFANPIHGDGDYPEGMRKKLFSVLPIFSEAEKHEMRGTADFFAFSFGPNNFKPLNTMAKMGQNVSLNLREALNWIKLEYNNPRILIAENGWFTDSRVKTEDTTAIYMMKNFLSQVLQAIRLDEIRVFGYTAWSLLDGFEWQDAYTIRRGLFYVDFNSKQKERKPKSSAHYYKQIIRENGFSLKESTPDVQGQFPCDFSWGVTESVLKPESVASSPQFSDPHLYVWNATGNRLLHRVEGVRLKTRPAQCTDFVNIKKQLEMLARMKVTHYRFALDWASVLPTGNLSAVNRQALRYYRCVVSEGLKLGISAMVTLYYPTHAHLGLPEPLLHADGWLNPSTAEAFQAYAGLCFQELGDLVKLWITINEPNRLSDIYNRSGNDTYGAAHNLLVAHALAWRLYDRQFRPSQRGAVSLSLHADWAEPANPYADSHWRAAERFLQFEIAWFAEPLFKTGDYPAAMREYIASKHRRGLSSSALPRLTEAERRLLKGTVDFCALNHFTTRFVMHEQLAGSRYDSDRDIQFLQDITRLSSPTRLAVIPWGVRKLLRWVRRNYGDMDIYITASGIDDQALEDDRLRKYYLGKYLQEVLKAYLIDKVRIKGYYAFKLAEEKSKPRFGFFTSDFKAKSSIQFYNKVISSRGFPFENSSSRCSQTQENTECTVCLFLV

B1: mature human FGF21 (ligand, UniProt Q9NSA1 29-209, looked up)
chain: HPIPDSSPLLQFGGQVRQRYLYTDDAQQTEAHLEIREDGTVGGAADQSPESLLQLKALKPGVIQILGVKTSRFLCQRPDGALYGSLHFDPEACSFRELLLEDGYNVYQSEAHGLPLHLPGNKSPHRDPAPRGPARFLPLPGLPPALPEPPGILAPQPPDVGSSDPLSMVGPSQGRSPSYAS
modifications: biotin (EZ-Link Sulfo-NHS-LC-Biotin) in the solid-phase binding assay; biotinylated as the labelled ligand in AlphaScreen
notes: human FGF21, mature protein; also called native FGF21
B2: mature human FGF21 polypeptide fused with the human Fc fragment at the N-terminus (Fc-FGF21), wild type (Fc fusion, UniProt Q9NSA1 29-209, looked up)
chain: B1 chain
notes: human FGF21, mature polypeptide (NM_019113); also called WT Fc-FGF21; source: HEK293-EBNA1, transiently transfected, purified (protein A, MabSelect SuRe); not shown: Fc (human), N-terminal, kept
B3: Fc-FGF21, 196M to arginine (Fc fusion, human, UniProt Q9NSA1 29-209, looked up)
chain: B1 chain with M168R
notes: human FGF21, mature polypeptide (NM_019113); also called M196R; source: HEK293-EBNA1, transiently transfected, purified (protein A); not shown: Fc (human), N-terminal, kept
B4: Fc-FGF21, 192D to alanine (Fc fusion, human, UniProt Q9NSA1 29-209, looked up)
chain: B1 chain with D164A
notes: human FGF21, mature polypeptide (NM_019113); also called D192A; source: HEK293-EBNA1, transiently transfected, purified (protein A); not shown: Fc (human), N-terminal, kept
B5: Fc-FGF21, 193P to arginine (Fc fusion, human, UniProt Q9NSA1 29-209, looked up)
chain: B1 chain with P165R
notes: human FGF21, mature polypeptide (NM_019113); also called P193R; source: HEK293-EBNA1, transiently transfected, purified (protein A); not shown: Fc (human), N-terminal, kept
B6: Fc-FGF21, 192D to arginine (Fc fusion, human, UniProt Q9NSA1 29-209, looked up)
chain: B1 chain with D164R
notes: human FGF21, mature polypeptide (NM_019113); also called D192R; source: HEK293-EBNA1, transiently transfected, purified (protein A); not shown: Fc (human), N-terminal, kept
B7: Fc-FGF21, 194L to alanine (Fc fusion, human, UniProt Q9NSA1 29-209, looked up)
chain: B1 chain with L166A
notes: human FGF21, mature polypeptide (NM_019113); also called L194A; source: HEK293-EBNA1, transiently transfected, purified (protein A); not shown: Fc (human), N-terminal, kept
B8: Fc-FGF21, 194L to arginine (Fc fusion, human, UniProt Q9NSA1 29-209, looked up)
chain: B1 chain with L166R
notes: human FGF21, mature polypeptide (NM_019113); also called L194R; source: HEK293-EBNA1, transiently transfected, purified (protein A); not shown: Fc (human), N-terminal, kept
B9: Fc-FGF21, 193P to alanine (Fc fusion, human, UniProt Q9NSA1 29-209, looked up)
chain: B1 chain with P165A
notes: human FGF21, mature polypeptide (NM_019113); also called P193A; source: HEK293-EBNA1, transiently transfected, purified (protein A); not shown: Fc (human), N-terminal, kept
B10: Fc-FGF21, 196M to alanine (Fc fusion, human, UniProt Q9NSA1 29-209, looked up)
chain: B1 chain with M168A
notes: human FGF21, mature polypeptide (NM_019113); also called M196A; source: HEK293-EBNA1, transiently transfected, purified (protein A); not shown: Fc (human), N-terminal, kept

How the values were obtained:
[1] = target: T1, human β-Klotho extracellular domain …; test: ELISA; solid-phase binding assay: β-Klotho (500 ng/mL) captured from CHO-EBNA1 conditioned media by plate-coated mouse anti-human β-Klotho antibody; biotinylated FGF21 titrated, 1.5 h room temperature; streptavidin-HRP; three-parameter logistic fit; settings: one partner purified
[2] = target: T1, human β-Klotho extracellular domain …; test: BLI; Octet RED; biotinylated β-Klotho ECD 6×His (10 µg/mL) loaded on streptavidin biosensors; FGF21 or Fc-FGF21 associated 5 min, dissociated 5 min in kinetics buffer; 1:1 binding model; settings: both partners purified
[3] = target: T1, human β-Klotho extracellular domain …; test: ELISA; solid-phase binding assay: WT β-Klotho captured from CHO-EBNA1 conditioned media by plate-coated anti-β-Klotho antibody; purified Fc-FGF21 titrated, 1.5 h room temperature; detected with anti-human IgG Fc-HRP; settings: one partner purified

Row | Binder | fold increase in EC50 compared to WT [3] [fold] | also measured
1 | B1 |  | EC50 [1]: 3.98 nM
2 | B2 |  | fold increase in affinity over native FGF21 [2]: 4 fold
3 | B3 | > 100 | 
4 | B4 | > 100 | 
5 | B5 | > 100 | 
6 | B6 | > 100 | 
7 | B7 | > 100 | 
8 | B8 | > 100 | 
9 | B9 | > 100 | 
10 | B10 | > 100 | 
